Here are results for one substance from patent US20190055295A1.

The target in this assay is human FSH receptor (human) (UniProt P23945). As to the kind of experiment: cell-based or functional assay.
Chain of human FSH receptor (human) (P23945 18-695): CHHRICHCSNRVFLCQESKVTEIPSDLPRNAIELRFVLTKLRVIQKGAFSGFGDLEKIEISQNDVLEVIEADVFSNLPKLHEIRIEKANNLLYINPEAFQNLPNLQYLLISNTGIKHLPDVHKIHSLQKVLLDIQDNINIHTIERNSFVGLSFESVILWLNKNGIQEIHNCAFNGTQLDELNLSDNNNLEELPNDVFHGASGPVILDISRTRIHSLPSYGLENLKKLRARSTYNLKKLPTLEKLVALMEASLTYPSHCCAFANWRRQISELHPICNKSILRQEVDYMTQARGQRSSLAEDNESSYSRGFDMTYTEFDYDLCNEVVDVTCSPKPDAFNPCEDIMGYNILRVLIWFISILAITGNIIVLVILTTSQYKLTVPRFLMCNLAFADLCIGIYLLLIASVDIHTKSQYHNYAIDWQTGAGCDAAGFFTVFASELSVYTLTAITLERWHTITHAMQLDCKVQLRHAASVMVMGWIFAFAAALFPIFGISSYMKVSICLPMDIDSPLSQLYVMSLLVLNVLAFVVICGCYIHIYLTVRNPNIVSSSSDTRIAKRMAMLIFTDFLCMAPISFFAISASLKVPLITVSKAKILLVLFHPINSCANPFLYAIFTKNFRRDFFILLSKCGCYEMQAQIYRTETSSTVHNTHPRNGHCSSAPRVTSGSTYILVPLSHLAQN

As for “FSH-Fc/Fc heterodimer (from UniProt P01215 25-116; P0DOX5 223-449) (Fc fusion)”, the 50% effective concentration (EC50) of cAMP production in CHO-FSHR cells came out at 0.204 nM and the in vitro biological activity relative to Gonal-F (cAMP production in CHO-FSHR cells) was 50%.
